The test system of this data set is T1, His-OsWOX3A (Oryza sativa), ORF:198cabac.
T1 sequence: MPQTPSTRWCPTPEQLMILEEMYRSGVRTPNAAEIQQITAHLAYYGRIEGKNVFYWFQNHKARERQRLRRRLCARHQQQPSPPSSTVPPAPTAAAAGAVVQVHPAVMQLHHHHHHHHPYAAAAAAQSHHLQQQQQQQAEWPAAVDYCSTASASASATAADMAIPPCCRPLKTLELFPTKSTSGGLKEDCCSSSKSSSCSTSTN
Nature of the data set: EMSA. The note with it: 10 mM Tris pH 7.5, 50 mM KCl, 1 mM DTT (from 10x buffer) plus about 50 mM KCl, 5 mM MgCl2, 10 mM EDTA, 2.5% glycerol, 0.05% NP-40, 50 ng/ul poly(dG-dC); room …. A general note: A gel shift assay detects complexes by their altered migration in electrophoresis.

“TACAAAACTCACTACTAGTAATTAAGTGTTGAGGGTTCGAGAACAAATTAATTAATCGCCAAATAATGCATCACAAACATCATCAACCTAGTTATCGGTT (double strand) [KAO-W1]”: the binding result is recorded as “binds”.

The values above are taken from PMC4783357.
